Laboratory results as given in US20250282872A1 (ANAPTYSBIO, published 2025).
Blank lines part the entries; values can stand above or below the molecule they belong to.

Assays:
[1] = molecular target: cynomolgus monkey BTLA on cells (cynomolgus monkey); assay: flow cytometry dot plot, cynomolgus monkey lysed whole blood, CD3 (PerCP Cy5.5) against BTLA (APC), 33 nM antibody
[2] = molecular target: β-galactosidase enzyme donor (ED)-tagged human BTLA on Jurkat cells (human, UniProt Q7Z6A9 31-289); assay: cell-based or functional assay
[3] = molecular target: T1, cynomolgus monkey BTLA on cells (cynomolgus monkey, UniProt A0A2K5W7M7 31-289); assay: flow cytometry on cynomolgus monkey whole blood, staining of CD20+ B cells against CD3+ T cells
T1 construct: whole, on cells; also called 293c18 clone 1G5; BTLA on cynomolgus monkey peripheral blood T and B cells
T1 sequence: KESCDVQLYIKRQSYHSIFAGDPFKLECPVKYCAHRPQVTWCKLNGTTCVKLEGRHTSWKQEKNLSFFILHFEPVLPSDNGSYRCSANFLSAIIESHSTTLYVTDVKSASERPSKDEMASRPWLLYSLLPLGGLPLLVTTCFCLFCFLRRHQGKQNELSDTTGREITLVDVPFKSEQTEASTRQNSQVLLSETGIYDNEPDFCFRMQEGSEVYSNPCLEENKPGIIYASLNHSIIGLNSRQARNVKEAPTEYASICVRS
Description: Blood was then aliquoted into wells and incubated with the indicated concentrations of 6G3-AF647 (APE13766.02), or APC-Mouse Anti-Human CD272 (BTLA) reference antibody (clone J168-540; BD Biosciences) for 30 minutes at room temperature, in the dark. Following incubation, red blood cells were lysed for 10 minutes by addition of 2.0 ml diluted BD Pharm Lyse lysing solution (BD Biosciences), samples centrifuged at 200×g for 5 minutes, washed in FACS Buffer [Dulbecco's PBS, no calcium, no magnesium (Gibco/ThermoFisher Scientific), 25 mM HEPES, pH 7.2, 0.1% BSA, 0.1% sodium azide] and fixed in 4% paraformaldehyde (200 μl/sample) for 10 minutes at room temperature. Samples were washed twice in FACS Buffer and analyzed for fluorescence on a NovoCyte Quanteon flow cytometer (ACEA Biosciences, Inc.). Data were analyzed using NovoExpress Software (ACEA Biosciences, Inc.). Mean fluorescence intensity (MFI) values were graphed and fit with nonlinear regression analyses in GraphPad Prism (GraphPad Software, Inc.). MFI values for each anti-BTLA antibody on total CD3⁺ cells are shown in FIG. 5A; MFI values for each anti-BTLA antibody on total […] are shown in FIG. 5B. […] Binding of each anti-BTLA antibody to CD3⁻ cells in FIG. 5C and FIG. 5D (green cells in the bottom quadrants of each panel) reflects the binding to CD20+ B cells. […]

[4] = molecular target: T2, BTLA-ECD, purified recombinant (Example 19)
T2 sequence (Q7Z6A9 31-157, species assumed, looked up): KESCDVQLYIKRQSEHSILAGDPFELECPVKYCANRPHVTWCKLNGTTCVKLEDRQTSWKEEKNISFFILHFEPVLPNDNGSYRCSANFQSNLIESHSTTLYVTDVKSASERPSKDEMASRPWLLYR

% of cells in quadrant Q8-2 (CD3+, BTLA stain positive) [1]: 35.8%
% of cells in quadrant Q8-4 (CD3-, BTLA stain positive) [1]: 28%
Total BTLA (% of cells stained) [1]: 63.9%
Molecule: APC-Mouse Anti-Human CD272 (BTLA) reference antibody clone J168-540 (BD Biosciences)

SHP2 recruitment PathHunter Jurkat BTLA signaling assay with U-2 OS hFcγRIa cells, EC50 [2]: 0.0093 µg/mL
SHP2 recruitment PathHunter Jurkat BTLA signaling assay, soluble antibody, EC50 [2]: 0.125 µg/mL
fold change of agonist potency with against without cell-associated FcγRIa [2]: ~13 fold
MFI on B cells relative to MFI on T cells [3]: ~9 fold
B1: 6G3 IgG4 anti-BTLA antibody (antibody, V domains shown)
VH: QVQLVQSGAEVKKPGSSVKVSCKASGYVFSTSWMNWVRQAPGQGLEWMGRIYPGDADTNYVGKFKGRVTITADKSTTTAYMELSSLRSEDTAVYFCAKSGTFNFGNYRWYFDVWGKGTTVTVSS
VL: AIQLTQSPSSLSASVGDRVTITCRVSENIYSHLAWYQQKPGKAPKLLIYAATNLALGVPSRFSGSGSGTDYTLTISSLQPEDFATYYCQLFWGPPLTFGGGTKVEIKR
notes: Humanized, IgG4; also called APE10840; APE10840.03

B2: Proteinase 3 (PR3), purified recombinant (protein)
chain: IVGGHEAQPHSRPYMASLQMRGNPGSHFCGGTLIHPSFVLTAAHCLRDIPQRLVNVVLGAHNVRTQEPTQQHFSVAQVFLNNYDAENKLNDVLLIQLSSPANLSASVATVQLPQQDQPVPHGTQCLAMGWGRVGAHDPPAQVLQELNVTVVTFFCRPHNICTFVPRRKAGICFGDSGGPLICDGIIQGIDSFVIWGCATRLFPDFFTRVALYVDWIRSTLR
proteolytic cleavage after co-incubation for up to 60 minutes (gel lanes) [4]: soluble BLTA-ECD was cleaved into multiple smaller fragments
